Data taken from PMC10558600.
Like-named read-outs stand apart in the source and are kept apart here.

Assays:
[1] = target: Aedes aegypti membrane-bound alkaline phosphatase (Aa-mALP) (Aedes aegypti); experiment: ELISA
[2] = target: Aedes aegypti membrane-bound alkaline phosphatase (Aa-mALP) (Aedes aegypti); experiment: ELISA; remark: listed apart in the source

For “65 kDa trypsin-activated Cry4Ba-R203Q toxin (natural protein)”, the Kd [1] was 0.0765 µM and the Kd [2] was 0.0762 µM.
